Data on eight compounds can be found in patent US11981943B2, “Methods and composition for detecting CAPN5” (UNIVERSITY OF IOWA RESEARCH FOUNDATION, priority 2016, dated 2024).

Entries after “also recorded” stand apart in the source; their conditions may differ.

Common to all, as to type: biochemical
Test [1] has as its target T1, CAPN1 WT (Homo sapiens, UniProt P07384).
T1 sequence (P07384 1-714): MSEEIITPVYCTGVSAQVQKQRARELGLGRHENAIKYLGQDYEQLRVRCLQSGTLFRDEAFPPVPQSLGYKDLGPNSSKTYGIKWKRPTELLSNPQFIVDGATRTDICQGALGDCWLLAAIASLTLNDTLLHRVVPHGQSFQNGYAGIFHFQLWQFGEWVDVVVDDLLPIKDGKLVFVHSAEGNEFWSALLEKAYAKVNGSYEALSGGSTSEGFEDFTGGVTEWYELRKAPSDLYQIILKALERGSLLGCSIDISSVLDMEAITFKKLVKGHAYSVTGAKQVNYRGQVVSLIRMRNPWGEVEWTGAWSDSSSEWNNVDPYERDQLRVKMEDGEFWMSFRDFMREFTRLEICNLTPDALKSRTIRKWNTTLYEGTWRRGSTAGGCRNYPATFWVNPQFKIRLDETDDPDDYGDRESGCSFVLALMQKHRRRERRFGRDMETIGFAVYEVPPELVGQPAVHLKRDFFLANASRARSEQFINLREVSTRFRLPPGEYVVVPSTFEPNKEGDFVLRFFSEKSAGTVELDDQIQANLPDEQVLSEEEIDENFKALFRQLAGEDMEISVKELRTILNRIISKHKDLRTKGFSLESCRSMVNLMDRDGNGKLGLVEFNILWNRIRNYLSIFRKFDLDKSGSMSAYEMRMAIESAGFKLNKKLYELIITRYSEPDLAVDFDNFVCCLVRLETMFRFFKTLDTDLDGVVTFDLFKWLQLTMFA
As to the kind of experiment: Inhibition of CAPN1 WT proteolysis of EPLFAERK substrate. As for the experimental part: (§1) FIG. 15A: Various concentrations of SNJ-1945 were incubated in a reaction with 50 μM EPLFAERK (SEQ ID NO: 22) (a CAPN1 substrate) and CAPN1 WT in activity. Data is plotted for CAPN1 as initial velocity (μM/sec) versus SNJ-1945 concentration. Addition of 1 μM SNJ-1945 slows the initial reaction rate by 100%. FIG. 15B: CAPN1 WT was incubated with and without SNJ-1945 at increasing concentrations of EPLFAERK substrate (SEQ ID NO: 22). Data is plotted for CAPN1 as initial velocity (μM/sec) versus substrate concentration. FIG. 15C: Various concentrations of SNJ-1945 were incubated in a reaction with CAPN5p.370-80 and CAPN5 WT in an activity buffer. Data is plotted for CAPN5 as initial velocity (μM/sec) versus SNJ-1945 concentration. Only after addition of 100 μM SNJ-1945 did the initial reaction rate slow to 100%. FIG. 15D: CAPN5 WT was incubated with and without SNJ-1945 at increasing concentrations of CAPN5 p.370-80 substrate. Data is plotted for CAPN5 as initial velocity (μM/sec) versus substrate concentration.
Various concentrations of SNJ-1945 were incubated in a reaction with 50 μM EPLFAERK (a CAPN1 substrate) (SEQ ID NO: 22) and CAPN1 WT in activity. Addition of 1 μM SNJ-1945 slows the initial reaction rate by 100% (FIG. 15A). CAPN1 WT was incubated with and without SNJ-1945 at increasing concentrations of EPLFAERK substrate (SEQ ID NO: 22) (FIG. 15B). […]

Test [2] addresses T2, CAPN5 WT (Homo sapiens, UniProt O15484). Description: Inhibition of CAPN5 WT proteolysis of CAPN5p.370-80 substrate. The following applies: for effect of increasing substrate concentration on inhibition of CAPN5: increasing concentrations of CAPN5 p.370-80 substrate, with and without inhibitor. As to the method:
as §1
FIGS. 16A-16B. […] First generation lead compound CAPN5 p.370-80 was modified using amide cyclization to generate a second generation competitive cyclic inhibitor. (FIG. 16A) Various concentrations of Cyclic CAPN5 p.370-80 were incubated in a reaction with CAPN5p.370-80 and CAPN5 WT in an activity buffer. Data is plotted for CAPN5 as initial velocity (μM/sec) versus Cyclic CAPN5 p.370-80 concentration. Addition of 10 μM Cyclic CAPN5 p.370-80 slows the initial reaction rate by 40%. (FIG. 16B) CAPN5 WT was incubated with and without 10 μM Cyclic CAPN5 p.370-80 at increasing concentrations of CAPN5 p.370-80 substrate. Data is plotted for CAPN5 as initial velocity (μM/sec) versus substrate concentration.
Various concentrations of SNJ-1945 were incubated in a reaction with 50 μM EPLFAERK (a CAPN1 substrate) (SEQ ID NO: 22) and CAPN1 WT in activity. Addition of 1 μM SNJ-1945 slows the initial reaction rate by 100% (FIG. 15A). CAPN1 WT was incubated with and without SNJ-1945 at increasing concentrations of EPLFAERK substrate (SEQ ID NO: 22) (FIG. 15B). Various concentrations of SNJ-1945 were incubated in a reaction with CAPN5p.370-80 and CAPN5 WT in an activity buffer. Only after addition of 100 μM SNJ-1945 did the initial reaction rate slow to 100% (FIG. 15C). CAPN5 WT was incubated with and without SNJ-1945 at increasing concentrations of CAPN5 p.370-80 substrate (FIG. 15D).
First generation lead compound CAPN5 p.370-80 was modified using amide cyclization to generate a second generation competitive cyclic inhibitor. Various concentrations of Cyclic CAPN5 p.370-80 were incubated in a reaction with CAPN5p.370-80 and CAPN5 WT in an activity buffer. Addition of 10 μM Cyclic CAPN5 p.370-80 slows the initial reaction rate by 40% (FIG. 16A). CAPN5 WT was incubated with and without 10 μM Cyclic CAPN5 p.370-80 at increasing concentrations of CAPN5 p.370-80 substrate.

For test [3], the target named is T2, CAPN5 WT. Description: FRET peptide proteolysis assay with CAPN5-WT. More on the design: MBP (N). The following applies: for proteolysis of peptide substrate by CAPN5-WT (fluorescence): FRET peptide, calpain activity buffer, 37° C. As to the method:
(§2) FIG. 2. Diagram of Assay. 10 uM of FRET substrates were added to a solution containing 2 mM DTT, 5 uM Calcium, and CAPN5 Buffer (20 mM Tris, 300 mM NaCl, pH 7.5) to a volume of 100 uL. The solution was pipetted into a 96 well plate in wells that contained 24 uM of CAPN5-WT, CAPN5-R243L, or no CAPN5. The fluorescence of each well was measured using a Tecan Infinite M200 Pro plate reader.
(§3) Peptide substrates dissolved in DMSO and H2O were incubated with WT CAPN5 at 37° C. in the presence or absence of calcium until a change in fluorescence was no longer detected. […] As expected, R243LCAPN5 (hyperactive) cleaved substrate fragments at a higher rate (FIG. 4). Inhibitor peptides were identified that serve as the lead compounds for optimization.
Proteolytic kinetics of CAPN5 is influenced by peptide length near its autoproteolytic site. Peptides substrates that were 7, 11, and 21 amino acids long were incubated in calpain activity buffer. The solution was brought to 37° C. CAPN5 was then added and fluorescence was measured. […] The kinetics data from the Michaelis-Menten and substrate inhibition equations are shown in a table (FIG. 12D).
(§4) Peptides were incubated in calpain activity buffer, and the solution was brought to 37° C. Calpain was added and fluorescence was measured. The fluorescence measured for the lead peptide, CAPN5p370-380, was plotted and lines were fit using the following substrate inhibition equation, Y=Vmax*X/(Km+X*(1+X/Ki)). […] The fluorescence measure for a previously published calpain-1 peptide, EPLFAERK (SEQ ID NO: 22), was plotted and lines were fit using the following Michaelis-Menten equation, Y=Vmax*X/(Km+X) (FIG. 13B). […] Kinetics data from the Michaelis-Menten and substrate inhibition equations are shown in a table (FIG. 13C).
Scanning modifications were made to the amino acids of the lead compound to make the bonds un-cleavable by CAPN5 (FIG. 18B). Despite modifications, the peptide still fit in the catalytic groove using docking predictions. N-terminal (EDANS) and C-terminal GLU-(DABCYL) FRET tags were added to the peptides for our standard CAPN5 assay and were dissolved in 70% DMSO (FIG. 18C). Peptides incubated for 15 minutes at various concentrations with 5 μg of MBP-CAPN5 WT. Modification of the amino acids slows the reaction rate. Data is plotted as initial velocity (uM/sec) versus peptide concentration fit to the substrate inhibition equation (FIG. 18D).
The CAPN5-370-80 peptide was modified (FIGS. 19A-19G) and the activity was evaluated (FIGS. 20A-20D). Scanning modifications were made to the amino acids of the peptide to make the bonds un-cleavable by CAPN5. The location of the modifications are denoted with circles N-terminal (EDANS) and C-terminal GLU-(DABCYL) FRET tags were added to the peptides for the standard CAPN5 assay and were dissolved in 70% DMSO. Peptides incubated for 15 minutes at various concentrations with 5 μg of MBP-CAPN5 WT in a buffer containing 20 mM Tris, 300 mM NaCl, 2 mM DTT, pH 7.5 to measure activity (FIG. 20C). Data is plotted as initial velocity (uM/sec) versus peptide concentration. Modification of the amino acids slows the reaction rate.

Test [4] has as its target T1, CAPN1 WT. Description: FRET peptide proteolysis assay with CAPN1. The following applies: calpain activity buffer, 37° C. As to the method:
as §4
CAPN5 specifically targets a peptide corresponding to its own autocatalytic site and not homologous regions in other calpains. […] Peptides corresponding to the homologous regions of the CAPN5 autoprotolysis site in other calpain family members were incubated with CAPN5 protease. […] Peptides tested in FIG. 14B were incubated with CAPN1. […] Kinetics data from the Michaelis-Menten and substrate inhibitions equations are shown in a table (FIG. 14D).

The target of test [5] is CAPN5-R243L (Homo sapiens, UniProt O15484, R243L). As to the kind of experiment: FRET peptide proteolysis assay with CAPN5-R243L. The note with it: hyperactive R243L mutant. As for the experimental part: as §2, §3
Chain of CAPN5-R243L (O15484 whole entry R243L): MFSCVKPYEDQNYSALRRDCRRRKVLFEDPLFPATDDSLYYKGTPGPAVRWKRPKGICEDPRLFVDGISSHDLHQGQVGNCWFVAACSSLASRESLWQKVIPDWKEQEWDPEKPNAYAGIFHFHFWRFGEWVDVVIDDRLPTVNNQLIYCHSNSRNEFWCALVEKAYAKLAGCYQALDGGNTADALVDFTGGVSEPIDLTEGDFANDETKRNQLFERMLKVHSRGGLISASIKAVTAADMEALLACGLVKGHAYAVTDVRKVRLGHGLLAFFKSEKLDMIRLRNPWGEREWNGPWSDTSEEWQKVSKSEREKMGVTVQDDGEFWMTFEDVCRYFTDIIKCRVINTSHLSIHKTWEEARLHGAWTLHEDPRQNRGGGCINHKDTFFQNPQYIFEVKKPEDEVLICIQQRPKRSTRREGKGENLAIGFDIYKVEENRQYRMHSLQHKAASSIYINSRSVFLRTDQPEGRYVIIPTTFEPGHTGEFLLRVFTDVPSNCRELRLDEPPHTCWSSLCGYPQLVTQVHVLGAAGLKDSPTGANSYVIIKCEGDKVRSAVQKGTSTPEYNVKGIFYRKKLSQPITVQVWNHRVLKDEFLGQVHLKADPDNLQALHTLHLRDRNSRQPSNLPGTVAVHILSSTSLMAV

T2 sequence (O15484 whole entry): as the sequence (O15484 whole entry R243L) above, with L243R counted along it

Take `COCCOCCOC(=O)N[C@@H](CC(C)C)C(=O)N[C@@H](Cc1ccccc1)C(=O)C(=O)NC1CC1` [SNJ-1945]: in test [1], the “inhibition of CAPN1 (in words)” value is given as “inhibits CAPN1”. Moreover, in test [1] (1 μM SNJ-1945, 50 μM EPLFAERK substrate), the “slowing of initial reaction rate of CAPN1” value is listed as 100%. In test [2], the “inhibition of CAPN5 (in words)” value is reported as “not a good inhibitor of CAPN5” and the “effect of increasing substrate concentration on inhibition of CAPN5” value is “overcomes the inhibition”. In addition, in test [2] (100 μM SNJ-1945, CAPN5p.370-80 substrate), the “slowing of initial reaction rate of CAPN5” value was 100%.

As to “CAPN5p.372-378: 7 amino acid peptide substrate near the CAPN5 autoproteolytic site (NRGGGCI)”, in test [3], the “proteolysis of peptide substrate by CAPN5-WT (fluorescence)” value (shortened to “proteolysis … by CAPN5-WT (fluorescence)”) is “mild cleavage”.

“CAPN14 peptide: peptide of the CAPN14 region homologous to the CAPN5 autoproteolysis site (RGFNSGGSQPNAETFWTNPQFR; listed as Homo sapiens)”: the “proteolysis … by CAPN5-WT (fluorescence)” value in test [3] is reported as “some proteolysis”.

Turning to “Cyclic CAPN5 p.370-80: CAPN5 p.370-80 modified by amide cyclization, second generation competitive cyclic inhibitor”, the “slowing of initial reaction rate of CAPN5” value in test [2] (10 μM Cyclic CAPN5 p.370-80, CAPN5p.370-80 substrate) is given as 40%. Further, the “effect of increasing substrate concentration on inhibition of CAPN5” value in test [2] is “does not overcome inhibition”.

Consider EPLFAERK [reference compound], for which the “proteolysis … by CAPN5-WT (fluorescence)” value in test [3] is given as “not proteolyzed by CAPN5; also recorded: very limited proteolysis”. Moreover, the “proteolysis of peptide substrate by CAPN1 (fluorescence)” value in test [4] was “specific to CAPN1; also recorded: high proteolysis”.

Turning to KIEIVRKKPIFKKATV [PDGFB (155-170)], the “proteolysis of peptide substrate by CAPN5-R243L (fluorescence)” value (“proteolysis … by CAPN5-R243L (fluorescence)” below) in test [5] was “greatest fluorescent intensity”.

As to “RQNRGGGCINH (listed as Homo sapiens) [CAPN5-370-380]”, the “proteolysis … by CAPN5-WT (fluorescence)” value is “most sensitive to cleavage” in test [3]; “rapid and high cleavage” in test [3] (listed as 11 aa peptide); “specific to CAPN5” in test [3] (listed as CAPN5 (370-380)); “greatest fluorescent intensity” in test [3] (listed as CAPN5 (p370-380)); “high proteolysis” in test [3] (listed as CAPN5p370-380). Also, the entries for the “proteolysis … by CAPN5-R243L (fluorescence)” value in test [5] and in test [5] (listed as CAPN5 (370-380)) were “most sensitive to cleavage” and “greatest fluorescent intensity”, respectively. Also, the “proteolysis of peptide substrate by CAPN1 (fluorescence)” value is given as “not proteolyzed by CAPN1” in test [4] (listed as CAPN5 (370-380)) and “very limited proteolysis” in test [4] (listed as CAPN5p370-380).

As to “RQNRGGGCINHKDTFFQNPQY (listed as Homo sapiens) [CAPN5-370-390]”, the “proteolysis … by CAPN5-WT (fluorescence)” value in test [3] is “cleaved slower”. Also, the “substrate inhibition of CAPN5 cleavage” value in test [3] (peptide length series near autoproteolytic site) is recorded as “does not show cleavage substrate inhibition”. In addition, the “proteolysis … by CAPN5-R243L (fluorescence)” value in test [5] was “greatest fluorescent intensity”.
